Assay results reported in patent publication US20070036799A1.
Read-outs that look alike come from different tables or passages of the source. Blank lines part the entries; values can stand above or below the substance they belong to.

Columns and labels:
[1] = target: soluble monomeric FcγRIIIA-linker-AVITAG (158V), biotinylated (human) (UniProt P08637); test: ELISA
[2] = target: FcγRIIB-Fc fusion protein (soluble dimeric FcγRIIB) (human) (UniProt P31994); test: ELISA
[3] = target: FcγRIIB-Fc fusion protein (soluble dimeric FcγRIIB) (human) (UniProt P31994); test: SPR
[4] = target: FcγRIIB-Fc fusion protein (soluble dimeric FcγRIIB) (human) (UniProt P31994); test: BIAcore, separate fits at two concentrations of FcγRIIB-Fc, average (Table 18 prints 0.085)
[5] = target: soluble monomeric FcγRIIIA-linker-AVITAG (158V), biotinylated (human) (UniProt P08637); test: SPR
Target sequence in this assay (P08637 17-203 F176V limits assumed, form in doubt): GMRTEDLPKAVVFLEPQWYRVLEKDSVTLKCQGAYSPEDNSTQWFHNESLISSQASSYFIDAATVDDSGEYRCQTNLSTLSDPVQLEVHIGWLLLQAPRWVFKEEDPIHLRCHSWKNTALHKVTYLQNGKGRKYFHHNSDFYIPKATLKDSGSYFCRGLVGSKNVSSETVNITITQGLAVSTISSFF

[6] = target: FcγRIIB-Fc fusion protein (soluble dimeric FcγRIIB) (human) (UniProt P31994); test: SPR; remark: listed apart in the source
[7] = target: yeast-displayed wild type CH1-CH3 Fc fusion (pYD-CH1) (human) [IgG part: P01857]; test: FACS titration on yeast, MFI, nonlinear regression
monomeric human IgG = test: ELISA: plate coated with human IgG, receptor titrated, detection with DJ130c and anti-mouse peroxidase
C1q [8] = test: SPR (BIAcore): 2B6 antibody captured on soluble CD32B (2bLAvi) on a CM-5 chip, C1q injected in a dilution series
C1q [9] = test: SPR (BIAcore): 2B6 antibody captured on soluble CD32B (2bLAvi) on a CM-5 chip, C1q injected at 0.8-26 nM

C1q, sequence (P02745 23-245, chain 1 of 3): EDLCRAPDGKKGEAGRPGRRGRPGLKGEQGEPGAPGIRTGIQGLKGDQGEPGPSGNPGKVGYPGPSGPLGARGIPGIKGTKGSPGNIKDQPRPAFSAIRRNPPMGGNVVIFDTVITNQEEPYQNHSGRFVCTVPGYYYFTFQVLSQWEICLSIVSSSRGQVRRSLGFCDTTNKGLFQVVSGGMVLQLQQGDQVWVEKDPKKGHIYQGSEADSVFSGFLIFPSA
C1q, sequence (P02746 28-253, chain 2 of 3, further chain): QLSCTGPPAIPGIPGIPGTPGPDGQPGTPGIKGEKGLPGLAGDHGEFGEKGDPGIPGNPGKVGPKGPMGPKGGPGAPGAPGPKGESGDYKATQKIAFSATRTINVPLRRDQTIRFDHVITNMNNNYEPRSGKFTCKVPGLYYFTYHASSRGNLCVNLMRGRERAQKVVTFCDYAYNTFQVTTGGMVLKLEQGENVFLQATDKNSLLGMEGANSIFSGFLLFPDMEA
C1q, sequence (P02747 29-245, chain 3 of 3, further chain): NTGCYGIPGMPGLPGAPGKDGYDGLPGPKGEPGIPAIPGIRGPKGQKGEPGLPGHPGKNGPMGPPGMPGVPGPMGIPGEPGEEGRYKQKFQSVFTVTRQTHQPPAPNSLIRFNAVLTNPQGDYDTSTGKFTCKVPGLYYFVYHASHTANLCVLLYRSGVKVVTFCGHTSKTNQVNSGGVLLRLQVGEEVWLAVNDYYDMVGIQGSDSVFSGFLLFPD
FcγRIIB-Fc fusion protein (soluble dimeric FcγRIIB) (human), sequence (P31994 43-217): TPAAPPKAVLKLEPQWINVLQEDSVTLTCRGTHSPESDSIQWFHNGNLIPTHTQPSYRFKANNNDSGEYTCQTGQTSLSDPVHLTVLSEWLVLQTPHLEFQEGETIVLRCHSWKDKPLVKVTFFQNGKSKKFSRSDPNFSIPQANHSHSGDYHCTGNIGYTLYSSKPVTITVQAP

Substance: chimeric 4-4-20 anti-fluorescein antibody, wild type Fc
ELISA, OD [1]: 0.5 OD
ELISA, OD [2]: 0.4 OD
Kd [3]: 61.4 nM
koff [3]: 0.085 s⁻¹
koff [4]: 0.0847 s⁻¹
Kd [5]: 319 nM
kon [5]: 600000 M⁻¹ s⁻¹
Kd [6]: 94 nM
koff [6]: 0.094 s⁻¹

Substance: ch4-4-20 S415I, L251F (antibody)
fold vs wt [1]: 0.5 x increase
fold vs wt [2]: 0.75 x increase

Substance: 2B6 (lower panel of FIG. 36B, Fc region not labelled) (antibody)
Kd (C1q [8]): 7 nM
koff (C1q [8]): 0.06 s⁻¹

Substance: ch4-4-20 K392T, P396L (from UniProt P01857 1-330) (antibody)
Kd [5]: 84 nM

Now from value to substance:

Kd [7]: 6 nM
EC50 (read off the curve) (monomeric human IgG): 1 µg/mL
Substance: soluble FcγRIIIA tetrameric complex (from UniProt P08637 1-203) (receptor)

koff (C1q [9]): 0.13 s⁻¹
Substance: 2B6 (upper panel of FIG. 36B, Fc region not labelled) (antibody)
